Reference: article doi:10.1101/2022.01.14.476386 (bioRxiv, 2022)

Legend:
[1] = target: T1, eukaryotic initiation factor 4E (eIF4E) (UniProt P06730 1-217); assay: fluorescence correlation spectroscopy
[2] = target: T1, eukaryotic initiation factor 4E (eIF4E); assay: fluorescence anisotropy decay

T1 sequence (P06730 whole entry): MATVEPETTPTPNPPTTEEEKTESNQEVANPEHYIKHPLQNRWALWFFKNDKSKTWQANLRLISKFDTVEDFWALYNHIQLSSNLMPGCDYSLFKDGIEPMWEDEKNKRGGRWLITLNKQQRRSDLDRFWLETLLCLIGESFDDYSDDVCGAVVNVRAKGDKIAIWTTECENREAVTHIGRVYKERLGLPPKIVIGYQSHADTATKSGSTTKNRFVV

Binder	binding result [1]	binding result [2]
4E-BP2 C121 (C35S/C73S/C121ins), non-phosphorylated, labelled with Atto488 at position 121 (natural protein, UniProt Q13542 1-120, looked up, Atto488 maleimide on the inserted cysteine at position 121) MSSSAGSGHQPSQSRAIPTRTVAISDAAQLPHDYSTTPGGTLFSTTPGGTRIIYDRKFLLDRRNSPMAQTPPSHLPNIPGVTSPGTLIEDSKVEVNNLNNLNNHDRKHAVGDDAQFEMDIC	binds	–
4E-BP2 C91 (C35S/C73S/S91C), non-phosphorylated, labelled with Atto488 at position 91 (natural protein, UniProt Q13542 1-120, looked up, Atto488 maleimide on cysteine 91) MSSSAGSGHQPSQSRAIPTRTVAISDAAQLPHDYSTTPGGTLFSTTPGGTRIIYDRKFLLDRRNSPMAQTPPSHLPNIPGVTSPGTLIEDCKVEVNNLNNLNNHDRKHAVGDDAQFEMDI	binds	–
4E-BP2 C73 (C35S), non-phosphorylated, labelled with Atto488 at position 73 (natural protein, UniProt Q13542 1-120, looked up, Atto488 maleimide on cysteine 73) MSSSAGSGHQPSQSRAIPTRTVAISDAAQLPHDYSTTPGGTLFSTTPGGTRIIYDRKFLLDRRNSPMAQTPPCHLPNIPGVTSPGTLIEDSKVEVNNLNNLNNHDRKHAVGDDAQFEMDI	binds	–

The next lines start with the values.

binding result [1]	binding result [2]	Binder
–	binds	4E-BP2 C14 (S14C/C35S/C73S), non-phosphorylated, labelled with Atto488 at position 14 (natural protein, UniProt Q13542 1-120, looked up, Atto488 maleimide on cysteine 14) MSSSAGSGHQPSQCRAIPTRTVAISDAAQLPHDYSTTPGGTLFSTTPGGTRIIYDRKFLLDRRNSPMAQTPPSHLPNIPGVTSPGTLIEDSKVEVNNLNNLNNHDRKHAVGDDAQFEMDI
–	binds	4E-BP2 C35 (C73S), non-phosphorylated, labelled with Atto488 at position 35 (natural protein, UniProt Q13542 1-120, looked up, Atto488 maleimide on cysteine 35) MSSSAGSGHQPSQSRAIPTRTVAISDAAQLPHDYCTTPGGTLFSTTPGGTRIIYDRKFLLDRRNSPMAQTPPSHLPNIPGVTSPGTLIEDSKVEVNNLNNLNNHDRKHAVGDDAQFEMDI
